{"source": "paper PMC6380423", "about": "(mAbs, 2019)", "key": {"[1]": {"molecular_target": "B cell receptor (BCR) (human (endogenous in Ramos))", "assay": "FRET or BRET"}, "[2]": {"molecular_target": "the molecule itself", "assay": "FRET or BRET"}}, "data": [{"molecule": "CD19 (from UniProt P15391 20-556) (receptor)", "values": [{"measurement": "normalized FCET at 30 min of BCR stimulation", "setting": "[1]", "result": 2.6, "unit": "units"}, {"measurement": "normalized FCET at 30 min of BCR stimulation, with the CD47xCD19 biAb", "setting": "[1]", "result": 1.5, "unit": "units"}, {"measurement": "normalized FCET at 1 hour of BCR stimulation", "setting": "[1]", "result": 3.6, "unit": "units"}, {"measurement": "normalized FCET at 1 hour of BCR stimulation, with the CD47xCD19 biAb", "setting": "[1]", "result": 1.9, "unit": "units"}]}, {"molecule": "CD19 (receptor) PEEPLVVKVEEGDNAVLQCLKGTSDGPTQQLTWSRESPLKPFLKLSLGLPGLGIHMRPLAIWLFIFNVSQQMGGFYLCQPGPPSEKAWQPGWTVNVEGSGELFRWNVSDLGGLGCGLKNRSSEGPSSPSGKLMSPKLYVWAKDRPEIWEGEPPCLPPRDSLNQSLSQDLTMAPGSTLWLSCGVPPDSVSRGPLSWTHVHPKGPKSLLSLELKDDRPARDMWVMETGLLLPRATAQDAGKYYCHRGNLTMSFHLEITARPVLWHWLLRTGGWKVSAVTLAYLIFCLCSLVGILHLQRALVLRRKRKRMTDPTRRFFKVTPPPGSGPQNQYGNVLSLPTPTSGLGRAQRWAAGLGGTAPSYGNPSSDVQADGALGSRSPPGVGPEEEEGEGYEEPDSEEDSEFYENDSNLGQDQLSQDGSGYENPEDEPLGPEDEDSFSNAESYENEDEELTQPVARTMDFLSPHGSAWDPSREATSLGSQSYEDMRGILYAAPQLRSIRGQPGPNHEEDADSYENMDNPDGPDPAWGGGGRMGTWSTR", "values": [{"measurement": "normalized FCET (fold over baseline), with the bivalent anti-CD19 mAb", "setting": "[2]", "result": 8.2, "unit": "fold"}]}, {"molecule": "CD20 (receptor) MTTPRNSVNGTFPAEPMKGPIAMQSGPKPLFRRMSSLVGPTQSFFMRESKTLGAVQIMNGLFHIALGGLLMIPAGIYAPICVTVWYPLWGGIMYIISGSLLAATEKNSRKCLVKGKMIMNSLSLFAAISGMILSIMDILNIKISHFLKMESLNFIRAHTPYINIYNCEPANPSEKNSPSTQYCYSIQSLFLGILSVMLIFAFFQELVIAGIVENEWKRTCSRPKSNIVLLSAEEKKEQTIEIKEEVVGLTETSSQPKNEEDIEIIPIQEEEEEETETNFPEPPQDQESSPIENDSSP", "values": [{"measurement": "normalized FCET (fold over baseline), with the anti-CD20 mAb rituximab", "setting": "[2]", "result": 6.7, "unit": "fold"}]}]}
